From publication PMC9936548, “Repertoire of Computationally Designed Peroxygenases for Enantiodivergent C–H Oxyfunctionalization Reactions” (Journal of the American Chemical Society, 2023)
Changes are numbered by the printed parent chain. Numbers in names are those of the source.

B1: PaDa-I (evolved AaeUPO) (Cyclocybe aegerita; A359P/F242L/F354L/G284I/I291V/L110F/T235L/V100A/V118I/V287I) (protein)
chain: EPGLPPGPLENSSAKLVNDEAHPWKPLRPGDIRGPCPGLNTLASHGYLPRNGVATPAQIINAVQEGFNFDNQAAIFATYAAHLVDGNLITDLLSIGRKTRLTGPDPPPPASVGGLNEHGTFEGDASMTRGDAFFGNNHDFNETLFEQLVDYSNRFGGGKYNLTVAGELRFKRIQDSIATNPNFSFVDFRFFLAYGETTLPANLFVDGRRDDGQLDMDAARSFFQFSRMPDDFFRAPSPRSITGIEVVVQAHPMQPGRNVGKINSYTVDPTSSDFSTPCLMYEKFVNITVKSLYPNPTVQLRKALNTNLDFLFQGVPAGCTQVFPYGRD
notes: laboratory-evolved secretion mutant PaDa-I; mature, no tag; evolved signal peptide (F12Y/A14V/R15G/A21D in leader); heme and structural Mg; expressed in Pichia pastoris, purified to homogeneity
B2: PaDa-I (evolved AaeUPO) (Cyclocybe aegerita; A120I/F112L/F242L/F354L/G284N/I291V/L110F/V100A/V118I/V287T) (protein)
chain: B1 chain with F69L, A77I, L192T, I241N, I244T, P316A
notes: as for B1

Substrate: CCc1ccccc1
Assay: purified protein
Format: biochemical, Cyclocybe aegerita
[1] = 2 mM H2O2, 100 mM phosphate pH 7.0, design d2
[2] = 2 mM H2O2, 100 mM phosphate pH 7.0, design d4

Protein	Km [1] [µM]	kcat [1] [s⁻¹]	kcat/Km [1] [M⁻¹ s⁻¹]	Km [2] [µM]	kcat [2] [s⁻¹]	kcat/Km [2] [M⁻¹ s⁻¹]
B1	560 ± 200	570 ± 119	1.02e+06	–	–	–
B2	–	–	–	560 ± 200	570 ± 119	1.02e+06
